T1: FLAG-hEya3 (human Eya3, full length) (human, UniProt Q99504 1-573)
T1 construct: Eya3, human, full length; cloned as FLAG-hEya3 in pCAG; only residues 65-86 are modelled in the structure; also called full-length Eya3; FLAG-Eya3
T1 sequence (looked up): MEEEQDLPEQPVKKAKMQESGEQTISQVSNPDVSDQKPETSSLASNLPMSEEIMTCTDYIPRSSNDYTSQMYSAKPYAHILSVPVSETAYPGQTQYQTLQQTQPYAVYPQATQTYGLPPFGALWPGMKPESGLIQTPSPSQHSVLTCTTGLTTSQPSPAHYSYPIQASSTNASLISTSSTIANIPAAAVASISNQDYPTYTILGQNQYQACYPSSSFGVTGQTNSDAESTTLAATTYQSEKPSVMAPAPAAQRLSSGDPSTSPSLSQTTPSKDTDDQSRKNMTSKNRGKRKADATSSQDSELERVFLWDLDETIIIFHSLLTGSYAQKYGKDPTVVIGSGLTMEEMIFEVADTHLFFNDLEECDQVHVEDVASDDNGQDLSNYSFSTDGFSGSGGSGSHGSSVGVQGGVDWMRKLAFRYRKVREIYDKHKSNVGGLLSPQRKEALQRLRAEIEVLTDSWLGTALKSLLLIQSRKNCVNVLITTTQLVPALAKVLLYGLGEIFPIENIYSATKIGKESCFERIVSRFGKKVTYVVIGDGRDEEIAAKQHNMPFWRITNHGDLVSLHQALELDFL


Experiments:
[1] = target: T1, FLAG-hEya3 (human Eya3, full length); assay: cryo-EM structure; PP2A–B55 + Eya3: 10 μM purified PP2A–B55 incubated with 15 μM full-length Eya3; 0.1% CHAPSO added before vitrification; 3.7 Å; conditions: both partners purified
[2] = target: T1, FLAG-hEya3 (human Eya3, full length); assay: mass photometry; proteins combined at a molar ratio of 1.5:1 in 20 mM Tris pH 8, 250 mM NaCl, 1 mM MnCl2, 0.5 mM TCEP, on ice, in the presence or absence of 25 μM B55i peptide; diluted to 100 nM before reading (Refeyn TwoMP); conditions: both partners purified

| Binder | binding result [1] | binding result [2] |
| --- | --- | --- |
| FLAG-hB55 (B55α subunit of the PP2A–B55 holoenzyme purified from HEK293 FreeStyle cells) (natural protein, human, PP2A regulatory B subunit B55α, human; FLAG-hB55 in pCAG; The same chain as the first chain of m7, written alone for the contacts seen in the structures; also called FLAG-B55; B55 subunit) AGAGGGNDIQWCFSQVKGAVDDDVAEADIISTVEFNHSGELLATGDKGGRVVIFQQEQENKIQSHSRGEYNVYSTFQSHEPEFDYLKSLEIEEKINKIRWLPQKNAAQFLLSTNDKTIKLWKISERDKRPEGYNLKEEDGRYRDPTTVTTLRVPVFRPMDLMVEASPRRIFANAHTYHINSISINSDYETYLSADDLRINLWHLEITDRSFNIVDIKPANMEELTEVITAAEFHPNSCNTFVYSSSKGTIRLCDMRASALCDRHSKLFEEPEDPSNRSFFSEIISSISDVKFSHSGRYMMTRDYLSVKIWDLNMENRPVETYQVHEYLRSKLCSLYENDCIFDKFECCWNGSDSVVMTGSYNNFFRMFDRNTKRDITLEASRENNKPRTVLKPRKVCASGKRKKDEISVDSLDFNKKILHTAWHPKENIIAVATTNNLYIFQDKVN | binds |  |
| His-hB55 (human PP2A regulatory subunit B55α) (natural protein, UniProt P63151 1-447, looked up, PP2A regulatory B subunit B55α, human; cloned as His-hB55 in pFASTbac; Labelled on the His tag with RED-Tris-NTA dye for MST; also called His-B55; His-B55α; source: Hi5 insect cells, purified (nickel resin)) MAGAGGGNDIQWCFSQVKGAVDDDVAEADIISTVEFNHSGELLATGDKGGRVVIFQQEQENKIQSHSRGEYNVYSTFQSHEPEFDYLKSLEIEEKINKIRWLPQKNAAQFLLSTNDKTIKLWKISERDKRPEGYNLKEEDGRYRDPTTVTTLRVPVFRPMDLMVEASPRRIFANAHTYHINSISINSDYETYLSADDLRINLWHLEITDRSFNIVDIKPANMEELTEVITAAEFHPNSCNTFVYSSSKGTIRLCDMRASALCDRHSKLFEEPEDPSNRSFFSEIISSISDVKFSHSGRYMMTRDYLSVKIWDLNMENRPVETYQVHEYLRSKLCSLYENDCIFDKFECCWNGSDSVVMTGSYNNFFRMFDRNTKRDITLEASRENNKPRTVLKPRKVCASGKRKKDEISVDSLDFNKKILHTAWHPKENIIAVATTNNLYIFQDKVN |  | binds |

Source: article PMC12246617, “Cryo-EM structures reveal the PP2A–B55α and Eya3 interaction that can be disrupted by a peptide inhibitor” (The Journal of Biological Chemistry, 2025)
